Measured values as given in PMC10178127, “Immunomodulatory Effects of the Pea Defensin Psd1 in the Caco-2/Immune Cells Co-Culture upon Candida albicans Infection” (International Journal of Molecular Sciences, 2023).

Experiments:
[1] = tested on: human peripheral blood mononuclear cells (PBMCs); assay: Resazurin-based cell cytotoxicity assay; details: 24 h
Experimental: The cytotoxic properties of the pea defensin Psd1 were investigated by resazurin-based cell cytotoxicity assay as previously described. In brief, PBMCs were seeded in 96-well plates at 2 × 10^6 cells per well in RPMI-1640 supplemented with 10% FBS and kept in a CO2 incubator for 24 h. After this, serial two-fold dilutions of defensin in a complete culture medium were added to the wells at final concentrations from 0.2 to 50 μM and the plates were incubated for 24 h. Resazurin (Sigma) was added at a final concentration of 70 µM, and the plates were incubated overnight (16–18 h). Fluorescent resorufin was registered using a 535/595 filter at PlateReader AF2200 (Eppendorf). Untreated cells were used as negative controls. Non-ionogenic detergent Triton X-100 and membrane-active peptide melittin from honeybee venom were used as positive controls. The cell viability was calculated according to the following equation: cell viability (%) = (Fsample/Fcontrol) × 100%. Cell lysis was monitored with an Olympus CKX41 microscope.

Candida albicans enzymes = details: cited from earlier work

Q: What does the source list for “Psd1: pea defensin from Pisum sativum (UNIPROT P81929), recombinant peptide overexpressed in Escherichia coli (KTCEHLADTYRGVCFTNASCDDHCKNKAHLISGTCHNWKCFCTQNC; UniProt P81929 1-46, looked up)”?
A: cytotoxic activity on PBMCs ([1]; 0.2 to 50 μM): no cytotoxic activity; Cell viability ([1]; PBMCs, 50 μM): 100%; stability to proteolysis by Candida albicans enzymes (Candida albicans enzymes): stable to proteolysis by Candida albicans enzymes
